Experimental data as given in patent US20110195900A1, “PEPTIDIC PTH RECEPTOR AGONISTS” (FERRING B.V., priority 2008, published 2011).
Read-outs that look alike come from different tables or passages of the source. Non-standard residues stand in square brackets, D forms with d. Residues, ends and D or L forms follow the SMILES beside them. No end group written: not given here. 1Nal = N[C@@H](Cc1cccc2ccccc12)C(=O)O; 2Nal = N[C@@H](Cc1ccc2ccccc2c1)C(=O)O; β3hI = CC[C@H](C)[C@H](N)CC(=O)O; Nle = CCCC[C@H](N)C(=O)O; Aib = CC(C)(N)C(=O)O; βAla = NCCC(=O)O

T1: human PTH-1 receptor (Homo sapiens, UniProt Q03431)
T1 construct: expressed in transfected cells; host or cells: HEK-293
T1 sequence (Q03431 27-593): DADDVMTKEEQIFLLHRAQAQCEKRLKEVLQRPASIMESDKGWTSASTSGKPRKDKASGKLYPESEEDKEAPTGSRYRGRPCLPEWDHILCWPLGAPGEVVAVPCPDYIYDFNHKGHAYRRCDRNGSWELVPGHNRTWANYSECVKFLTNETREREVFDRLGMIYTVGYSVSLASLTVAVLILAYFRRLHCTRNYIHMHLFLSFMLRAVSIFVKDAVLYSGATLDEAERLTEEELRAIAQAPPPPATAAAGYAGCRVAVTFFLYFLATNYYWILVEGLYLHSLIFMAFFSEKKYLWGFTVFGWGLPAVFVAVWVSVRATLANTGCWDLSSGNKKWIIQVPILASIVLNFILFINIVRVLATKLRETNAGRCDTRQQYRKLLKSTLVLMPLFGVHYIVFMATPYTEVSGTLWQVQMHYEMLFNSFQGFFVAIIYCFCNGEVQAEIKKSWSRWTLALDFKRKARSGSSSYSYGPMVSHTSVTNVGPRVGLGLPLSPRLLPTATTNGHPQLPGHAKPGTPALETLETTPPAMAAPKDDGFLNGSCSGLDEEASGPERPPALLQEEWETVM


Legend:
human PTH-1 receptor = molecular target: T1, human PTH-1 receptor; assay: Reporter gene assay (CRE-luciferase) for agonist activity in transiently transfected HEK-293 cells; format: cell-based; conditions: for hPTHR-2/hPTHR-1: ratio of EC50 values, selectivity for hPTH-1 receptor over hPTH-2 receptor
How it was run: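 HEK-293 cells transiently transfected with SV40-driven human PTH-1 receptor and CRE-luciferase reporter, exposed to serial compound dilutions for 4-5 h, then lysed for luciferase readout; efficacy and EC50 by non-linear regression, PTH (1-34) as internal control, n≥3. Selectivity measured in analogous human PTH-2 receptor luciferase reporter assays.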

[1] = molecular target: human parathyroid hormone receptor 1 (human, UniProt Q03431); assay: cell-based or functional assay
[2] = molecular target: human parathyroid hormone receptor 2 (human, UniProt P49190); assay: cell-based or functional assay

| Molecule | EC50 (human PTH-1 receptor; Table 3, HEK-293 cells, CRE-luciferase, 4-5 hours exposure, read-out: hPTHR-1 EC50) [nM] | hPTHR-2/hPTHR-1 (human PTH-1 receptor; Table 3) | EC50 (human PTH-1 receptor) [nM] | hPTHR-1 EC50 (nM), CRE-luciferase reporter gene assay [1] [nM] | hPTHR-2 EC50 (nM), luciferase reporter gene assay [2] [nM] |
| --- | --- | --- | --- | --- | --- |
| CCCC[C@H](NC(=O)CCNC(=O)[C@H](CC(N)=O)NC(=O)[C@H](CC(C)C)NC(=O)[C@H](Cc1c[nH]cn1)NC(=O)[C@H](CCCCN)NC(=O)CNC(=O)[C@H](CC(C)C)NC(=O)[C@H](CC(N)=O)NC(=O)[C@H](Cc1c[nH]cn1)NC(=O)[C@H](CCCC)NC(=O)[C@H](CC(C)C)NC(=O)[C@H](CCC(N)=O)NC(=O)[C@@H](NC(=O)[C@H](CCC(=O)O)NC(=O)[C@H](CO)NC(=O)[C@@H](NC(=O)[C@H](C)N)C(C)C)[C@@H](C)CC)C(=O)N[C@@H](CCC(=O)O)C(=O)N[C@@H](CCCNC(=N)N)C(=O)N[C@H](C(=O)N[C@@H](CCC(=O)O)C(=O)N[C@@H](Cc1ccc2ccccc2c1)C(=O)N[C@@H](CC(C)C)C(=O)N[C@@H](CCCNC(=N)N)C(=O)N[C@@H](CCCCN)C(=O)N[C@@H](CCCCN)C(=O)N[C@@H](CC(C)C)C(=O)N[C@@H](CCC(N)=O)C(=O)N[C@@H](CC(=O)O)C(=O)N[C@H](C(=O)N[C@@H](Cc1c[nH]cn1)C(=O)N[C@@H](CC(N)=O)C(=O)N[C@@H](Cc1ccccc1)C(N)=O)C(C)C)C(C)C [SEQ ID NO: 12, [Ala^1, Nle^8,18, β-Ala^17,2-Nal^23] hPTH (1-34)-NH2] (H-AVSEIQL[Nle]HNLGKHLN[βAla][Nle]ERVE[2Nal]LRKKLQDVHNF-NH2) | 0.22 | 430 |  |  |  |
| CCCC[C@H](NC(=O)[C@H](CC(C)C)NC(=O)[C@H](CCC(N)=O)NC(=O)[C@@H](NC(=O)[C@H](CCC(=O)O)NC(=O)[C@H](CO)NC(=O)[C@@H](NC(=O)[C@@H](N)CO)C(C)C)[C@@H](C)CC)C(=O)N[C@@H](Cc1c[nH]cn1)C(=O)N[C@@H](CC(N)=O)C(=O)N[C@@H](CC(C)C)C(=O)NCC(=O)N[C@@H](CCCCN)C(=O)N[C@@H](Cc1c[nH]cn1)C(=O)N[C@@H](CC(C)C)C(=O)N[C@@H](CC(N)=O)C(=O)N[C@@H](CO)C(=O)N[C@H](CC(=O)N[C@@H](CCC(=O)O)C(=O)N[C@@H](CCCNC(=N)N)C(=O)N[C@H](C(=O)N[C@@H](CCC(=O)O)C(=O)N[C@@H](Cc1cccc2ccccc12)C(=O)N[C@@H](CC(C)C)C(=O)N[C@@H](CCCNC(=N)N)C(=O)N[C@@H](CCCCN)C(=O)N[C@@H](CC(C)C)C(=O)N[C@@H](CC(C)C)C(=O)N[C@@H](CCC(N)=O)C(=O)N[C@@H](CC(=O)O)C(=O)N[C@H](C(=O)N[C@@H](Cc1c[nH]cn1)C(=O)N[C@@H](CCC(=O)O)C(=O)N[C@@H](Cc1ccccc1)C(N)=O)C(C)C)C(C)C)[C@@H](C)CC [SEQ ID NO: 27, [Nle^8, β-hIle^18,1-Nal^23, Leu^27, Glu^33] hPTH (1-34)-NH2] (H-SVSEIQL[Nle]HNLGKHLNS[β3hI]ERVE[1Nal]LRKLLQDVHEF-NH2; N-terminus assumed) |  | 344 | 0.12 |  |  |
| CCCC[C@H](NC(=O)CCNC(=O)[C@H](CC(N)=O)NC(=O)[C@H](CC(C)C)NC(=O)[C@H](Cc1c[nH]cn1)NC(=O)[C@H](CCCCN)NC(=O)CNC(=O)[C@H](CC(C)C)NC(=O)[C@H](CC(N)=O)NC(=O)[C@H](Cc1c[nH]cn1)NC(=O)[C@H](CCCC)NC(=O)[C@H](CC(C)C)NC(=O)[C@H](CCC(N)=O)NC(=O)[C@@H](NC(=O)[C@H](CCC(=O)O)NC(=O)[C@H](CO)NC(=O)[C@@H](NC(=O)[C@@H](N)CO)C(C)C)[C@@H](C)CC)C(=O)N[C@@H](CCC(=O)O)C(=O)N[C@@H](CCCNC(=N)N)C(=O)N[C@H](C(=O)N[C@@H](CCC(=O)O)C(=O)N[C@@H](Cc1cccc2ccccc12)C(=O)N[C@@H](CC(C)C)C(=O)N[C@@H](CCCNC(=N)N)C(=O)N[C@@H](CCCCN)C(=O)N[C@@H](CC(C)C)C(=O)N[C@@H](CC(C)C)C(=O)N[C@@H](CCC(N)=O)C(=O)N[C@@H](CC(=O)O)C(=O)N[C@H](C(=O)N[C@@H](Cc1c[nH]cn1)C(=O)N[C@@H](CC(N)=O)C(=O)N[C@@H](Cc1ccccc1)C(N)=O)C(C)C)C(C)C [SEQ ID NO: 15, [Nle^8,18, β-Ala^17,1-Nal^23, Leu^27] hPTH (1-34)-NH2] (H-SVSEIQL[Nle]HNLGKHLN[βAla][Nle]ERVE[1Nal]LRKLLQDVHNF-NH2) |  | 389 | 0.12 |  |  |
| CCCC[C@H](NC(=O)[C@H](CC(C)C)NC(=O)[C@H](CCC(N)=O)NC(=O)[C@@H](NC(=O)[C@H](CCC(=O)O)NC(=O)[C@H](CO)NC(=O)[C@@H](NC(=O)[C@@H](N)CO)C(C)C)[C@@H](C)CC)C(=O)N[C@@H](Cc1c[nH]cn1)C(=O)N[C@@H](CC(N)=O)C(=O)N[C@@H](CC(C)C)C(=O)NC(C)(C)C(=O)NC(C)(C)C(=O)N[C@@H](Cc1c[nH]cn1)C(=O)N[C@@H](CC(C)C)C(=O)N[C@@H](CC(N)=O)C(=O)N[C@@H](CO)C(=O)N[C@H](CC(=O)N[C@@H](CCC(=O)O)C(=O)N[C@@H](CCCNC(=N)N)C(=O)N[C@H](C(=O)N[C@@H](CCC(=O)O)C(=O)N[C@@H](Cc1cccc2ccccc12)C(=O)N[C@@H](CC(C)C)C(=O)N[C@@H](CCCNC(=N)N)C(=O)N[C@@H](CCCCN)C(=O)N[C@@H](CC(C)C)C(=O)N[C@@H](CC(C)C)C(=O)N[C@@H](CCC(N)=O)C(=O)N[C@@H](CC(=O)O)C(=O)N[C@H](C(=O)N[C@@H](Cc1c[nH]cn1)C(=O)N[C@@H](CC(N)=O)C(=O)N[C@@H](Cc1ccccc1)C(N)=O)C(C)C)C(C)C)[C@@H](C)CC [SEQ ID NO: 31, [Nle^8, Aib^12,13, β-hIle^18,1-Nal^23, Leu^27] hPTH (1-34)-NH2] (H-SVSEIQL[Nle]HNL[Aib][Aib]HLNS[β3hI]ERVE[1Nal]LRKLLQDVHNF-NH2; N-terminus assumed) |  | 138 | 0.25 |  |  |
| SVSEIQL[Nle]HNLGKHLNS[β3hI]ERVE[1Nal]LRKLLQDV-NH2 [[Nle^8, β-hIle^18, 1-Nal^23, Leu^27] hPTH-(1-31)-NH2] |  |  |  | 0.09 | 32 |
| [Aib]VSEIQL[Nle]HELGKHLKS[β3hI]ERVE[1Nal]LRKLLQEVHEK-NH2 [[Aib^1, Nle^8, Glu^10, Lys^16, β-hIle^18, 1-Nal^23, Leu^27, Glu^30, Glu^33, Lys^34] hPTH(1-34)-NH2] |  |  |  | 0.04 | 1 |
| [Aib]VSEIQL[Nle]HSLGKHLK[βAla][Nle]ERVE[1Nal]LRKLLQRVHEE-NH2 |  |  |  | 0.03 | 7 |
| [Aib]VSEIQL[Nle]HNLGKHLNS[β3hI]ERVE[1Nal]LRKLLQDV-NH2 [[Aib^1, Nle^8, β-hIle^18, 1-Nal^23, Leu^27] hPTH (1-31)-NH2] |  |  |  | 0.05 | 18 |
| SVSEIQL[Nle]HNLGKHLNS[Nle][βAla]RVE[1Nal]LRKKLQDVHNF-NH2 (N-terminus assumed; SMILES CCCC[C@H](NC(=O)[C@H](CO)NC(=O)[C@H](CC(N)=O)NC(=O)[C@H](CC(C)C)NC(=O)[C@H](Cc1c[nH]cn1)NC(=O)[C@H](CCCCN)NC(=O)CNC(=O)[C@H](CC(C)C)NC(=O)[C@H](CC(N)=O)NC(=O)[C@H](Cc1c[nH]cn1)NC(=O)[C@H](CCCC)NC(=O)[C@H](CC(C)C)NC(=O)[C@H](CCC(N)=O)NC(=O)[C@@H](NC(=O)[C@H](CCC(=O)O)NC(=O)[C@H](CO)NC(=O)[C@@H](NC(=O)[C@@H](N)CO)C(C)C)[C@@H](C)CC)C(=O)NCCC(=O)N[C@@H](CCCNC(=N)N)C(=O)N[C@H](C(=O)N[C@@H](CCC(=O)O)C(=O)N[C@@H](Cc1cccc2ccccc12)C(=O)N[C@@H](CC(C)C)C(=O)N[C@@H](CCCNC(=N)N)C(=O)N[C@@H](CCCCN)C(=O)N[C@@H](CCCCN)C(=O)N[C@@H](CC(C)C)C(=O)N[C@@H](CCC(N)=O)C(=O)N[C@@H](CC(=O)O)C(=O)N[C@H](C(=O)N[C@@H](Cc1c[nH]cn1)C(=O)N[C@@H](CC(N)=O)C(=O)N[C@@H](Cc1ccccc1)C(N)=O)C(C)C)C(C)C) [[Nle^8,18, β-Ala^19, 1-Nal^23] hPTH (1-34)-NH2] |  |  |  | 0.21 | 11 |
